Reference: patent publication US20240376189A1 (University of Pennsylvania, published 2024)
Positions count from the first letter of the chain named. Names may count otherwise.

T1: human C5a (human, UniProt P01031 678-751, biotinylated in the U937/C5aR ligand blocking assay (site not stated))
T1 sequence: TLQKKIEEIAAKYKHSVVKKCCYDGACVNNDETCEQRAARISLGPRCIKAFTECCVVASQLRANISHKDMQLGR

B1: E54H (humanized anti-C5a IgG4 antibody) (antibody, V domains shown)
VH: QVQLVQSGAEVKKPGSSVKVSCKASGYTHTDHIIHWMRQAPGQGLEWMGYIYPRHGWTNYNENFKGRVTITADKSTSTAYMELSSLRSEDTAVYYCARERNLEYFDYWGQGTTVTVSS
VL: DIVLTQSPASLAVSPGQRATITCKASQSVDYEGFNYMNWYQQKPGQPPKLLIYAASNLDSGVPARFSGSGSGTDFTLTINPVEAEDTANYYCQQSNEDPHTFGGGTKVEIKR
notes: Carries F29H and E54H in VH and Y96H in VL (Kabat) relative to 16D10
B2: 16D10 (humanized anti-C5a IgG4 antibody) (antibody, V domains shown)
VH: B1 VH with H29F, H55E
VL: B1 VL with H100Y
notes: also called WT (16D10); WT
B3: N97H (humanized anti-C5a IgG4 antibody) (antibody, V domains shown)
VH: B1 VH with H55E, N101H
VL: B1 VL
notes: Carries F29H and N97H in VH and Y96H in VL (Kabat)
B4: N92H (humanized anti-C5a IgG4 antibody) (antibody, V domains shown)
VH: B1 VH with H55E
VL: B1 VL with N96H
notes: Carries F29H in VH and N92H and Y96H in VL (Kabat); also called N92H antibody
B5: NM2 (scFv, V domains shown)
VH: B1 VH with H29F, H55E, W57N
VL: DIVLTQSPASLAVSPGQRATITCKASQSVDYEGDNYMNWYQQKPGQPPKLLIYAASNLDSGVPARFSGSGSGTDFTLTINPVEAEDTANYYCQQSNEDPHTFGGGTKVEIK
notes: scFv expressed in E. coli BL21 (periplasmic extract)

Assays:
human C5a [1] = molecular target: T1, human C5a; assay: cell-based or functional assay
human C5a [2] = molecular target: T1, human C5a; assay: cell-based or functional assay; remark: listed apart in the source
human C5 [3] = molecular target: T2, human C5 (human, UniProt P01031 19-673; P01031 678-1676, limits assumed); assay: ELISA, antibody titrated on C5-coated plate
T2 construct: In the sheep RBC lysis assay, C5 is the C5 of normal human serum; also called huC5
Source text: The anti-C5a constructs were further tested for their affinities to human C5 using ELISA. Off-target C5 binding reduces availability of anti-C5a antibodies (C5-mediated “sink effect”). […] Each data point was the mean of 2 replicates.

human C5a [4] = molecular target: T1, human C5a; assay: ELISA, antibody titrated on C5a-coated plate
human C5 [5] = molecular target: T2, human C5; assay: ELISA, affinity for human C5 against affinity for human C5a
human C5 [6] = molecular target: T2, human C5; assay: BLI (Gator), percentage dissociation from human C5 at pH 5.8 over pH 7.4
Method: (§1) pH dependency of the humanized anti-C5a constructs were tested using C5 binding assays. A Biolayer interferometry instrument, Gator™ (Probe life Inc., USA) was used to determine pH dependent dissociation of histidine mutants and the benchmark antibodies. Briefly, anti-human IgG Fc (FHC) Probes were equilibrated in the kinetic (K) buffer of Phosphate-buffered saline containing 0.02% bovine serum albumin and 0.002% Tween20 pH 7.4. Antibodies were captured onto the sensors by dipping them into 200 μL of transfection supernatant for 600 s at pH 7.4. The biosensors were then incubated with human C5 prepared in the K buffer pH 7.4 (40 nM) for 600s followed by 600-second dissociation period in K Buffer, pH 7.4 or pH 5.8. The data were processed and analyzed by the Gator evaluation software.

human C5 [7] = molecular target: T2, human C5; assay: BLI (Gator), antibody on anti-human IgG Fc probes, 40 nM human C5 bound 600 s at pH 7.4, 600 s dissociation at pH 5.8
Method: as §1

human C5 [8] = molecular target: T2, human C5; assay: BLI (Gator), antibody on anti-human IgG Fc probes, 40 nM human C5 bound 600 s at pH 7.4, 600 s dissociation at pH 7.4
Method: as §1

human C5a [9] = molecular target: T1, human C5a; assay: ligand blocking, flow cytometry: antibody titrated against 20 nM biotinylated human C5a binding to U937/C5aR cells, Experiment #1
Method: (§2) U937/C5aR cells were washed twice by PBS and suspended in assay buffer (PBS+0.1% BSA) at the density of 3×10⁶ cells/ml. […] 1000 rpm centrifuge for 3-5 min at 4° C., remove supernatant and cells were washed by pre-cold PBS twice. Add 100 μl FITC conjugated streptavidin (eBioscience) to cells and incubate on ice for another 30 min. Centrifuge at 4° C., remove supernatant and cells were washed by pre-cold PBS twice. Add 150 μl 0.5% PFA to suspend cells and detect the signal by FACS (Beckman, Cytoflex). IC₅₀ value was calculated by GraphPad Prism software.
(§3) Mean fluorescence intensities were measured at each antibody concentration. U937 cells without addition of antibodies was used as the low control.

human C5a [10] = molecular target: T1, human C5a; assay: ligand blocking, flow cytometry: antibody titrated against 20 nM biotinylated human C5a binding to U937/C5aR cells, Experiment #2
Method: as §2, §3

cynomolgus antigen [11] = molecular target: T3, cynomolgus antigen (cynomolgus); assay: SPR, scFv captured, cynomolgus antigen as analyte
T3 construct: also called cyno antigen; cynomolgus monkey C5a

human C5a [12] = molecular target: T1, human C5a; assay: SPR, scFv captured via anti-c-myc/anti-His, 5 nM human antigen as analyte, 1:1 fit
cynomolgus antigen [13] = molecular target: T3, cynomolgus antigen; assay: SPR, scFv captured via anti-c-myc/anti-His, 60 nM cynomolgus antigen as analyte, 1:1 fit
Method: The activator was prepared by mixing 400 mM EDC (1-ethyl-3-(3-dimethylaminopropyl) carbodiimide) and 100 mM NHS (N-hydroxysuccinimide) (GE) immediately prior to injection. The CMS sensor chip was activated for 600 s with the mixture at a flow rate of 10 μL/min. Mixture of anti-c-myc and anti his antibodies in 10 mM NaAc (pH 4.5) was then injected to Fc1 and Fc2 of channel 1 to channel 8 for 600 seconds at a flow rate of 10 μL/min. The chip was deactivated by 1 M ethanolamine-HCl (GE) at a flow rate of 10 μL/min for 420 seconds.
The anti-C5a scFv was diluted to 0.5 μg/ml, the other samples were diluted to 2 μg/ml in running buffer 1×HBS-EP+ (0.01 M HEPES, 0.15 M NaCl, 0.003 M EDTA, 0.05% surfactant P20). […] Diluted TES buffer was injected into channel Fc1 at a flow rate of 10 μL/min for 40 s, diluted scFv was injected into channel Fc2 at a flow rate of 10 μL/min for 40 s. […] 10 mM glycine pH 1.5 as regeneration buffer was injected following every dissociation phase. The chip was regenerated with 10 mM glycine pH 1.5.
The sensorgrams for reference channel Fc1 and buffer channel were subtracted from the test sensorgrams. Data were fitted by 1:1 kinetic binding model. Molecular weight of 8.4 kDa was used to calculate the molar concentration of the cyno antigen.

Binder | Inhibition of cell migration IC50 (nM), U937-C5aR cells (human C5a [1]) | Inhibition of calcium influx IC50 (nM), FLIPR, Experiment #1 (human C5a [2]) | Inhibition of calcium influx IC50 (nM), FLIPR, Experiment #2 (human C5a [2]) | affinity determined by ELISA, huC5 (human C5 [3]) | affinity determined by ELISA, huC5a (human C5a [4]) | Fold affinity (C5/C5a) (human C5 [5]) | Ratio between dissociation at pH 5.8 and 7.4 (human C5 [6]) | Dissociation pH 5.8 (%) (human C5 [7]) | Dissociation pH 7.4 (%) (human C5 [8]) | IC50 (human C5a [9]) | IC50 (human C5a [10]) | Kd (cynomolgus antigen [11]) | koff (cynomolgus antigen [11]) | kon (cynomolgus antigen [11]) | koff (human C5a [12]) | koff (cynomolgus antigen [13])
B1 | 0.076 nM | 0.136 nM | 0.154 nM | 0.0601 nM | 0.336 nM | 5.6 fold | 11.3 | 60.8% | 5.39% | 2.57 nM | 6.53 nM |  |  |  |  | 
B2 | 0.061 nM | 0.106 nM | 0.135 nM | 0.0288 nM | 0.269 nM | 9.3 fold | -2.09 | -2.42% | 1.16% | 2.03 nM | 5.9 nM |  |  |  |  | 
B3 | 0.07 nM | 0.072 nM | 0.138 nM | 0.0682 nM | 0.408 nM | 6 fold | 10.9 | 49% | 4.49% | 4.71 nM | 5.96 nM |  |  |  |  | 
B4 | 0.099 nM | 0.078 nM | 0.145 nM | 0.12 nM | 0.468 nM | 3.9 fold | 6.54 | 54.2% | 8.29% | 3.68 nM | 6.23 nM |  |  |  |  | 
B5 |  |  |  |  |  |  |  |  |  |  |  | 190 nM | 0.133 s⁻¹ | 702000 M⁻¹ s⁻¹ | 0.000736 s⁻¹ | 0.0783 s⁻¹
